Data taken from publication PMC4020817.

Legend:
[1] = molecular target: recombinant APOBEC3A (rA3A) (human) (UniProt P31941); assay: SEC; rA3A without concentration on a Superose-12 gel filtration column (FPLC) with protein standards, in the buffer used for measuring deaminase activity; fractions immunoblotted with anti-A3A antibody
[2] = system: rA3A wild type (Homo sapiens); assay: fluorescence binding titration; conditions: EMSA: 0.5 pmol oligo, 2 ug rA3A in 10 ul deaminase buffer (composition not given), 4 C, 1 h, 6% native PAGE. Intrinsic fluorescence: 225 nM rA3A, 25 mM Tris pH …
[3] = molecular target: A3A E72A/delWG104-5 E72A;del104-105 (Homo sapiens) (UniProt P31941); assay: extrinsic fluorescence titration; conditions: EMSA: 0.5 pmol oligo, 2 ug rA3A in 10 ul deaminase buffer (composition not given), 4 C, 1 h, 6% native PAGE. Intrinsic fluorescence: 225 nM rA3A, 25 mM Tris pH …
Chain of A3A E72A/delWG104-5 E72A;del104-105 (Homo sapiens) (P31941 other isoform, or with tags, fused parts or gaps E72A E72A): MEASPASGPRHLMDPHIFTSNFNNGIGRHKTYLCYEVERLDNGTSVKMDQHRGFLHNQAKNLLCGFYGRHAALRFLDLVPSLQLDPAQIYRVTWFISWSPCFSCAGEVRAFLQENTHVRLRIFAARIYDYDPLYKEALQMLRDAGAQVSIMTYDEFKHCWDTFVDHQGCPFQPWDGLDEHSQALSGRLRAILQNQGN

Chain of recombinant APOBEC3A (rA3A), P31941 1-199 (enzyme; other documents disagree on this pair) (P31941 whole entry): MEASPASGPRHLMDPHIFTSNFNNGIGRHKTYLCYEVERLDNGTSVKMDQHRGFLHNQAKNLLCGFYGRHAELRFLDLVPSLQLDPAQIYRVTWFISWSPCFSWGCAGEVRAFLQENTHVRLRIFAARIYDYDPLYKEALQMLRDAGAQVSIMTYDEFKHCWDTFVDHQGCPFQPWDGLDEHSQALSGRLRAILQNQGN

## recombinant APOBEC3A (rA3A), P31941 1-199 (enzyme; other documents disagree on this pair)
[1]
  stoichiometry N: 2

## ssDNA oligo of fluorescence Kd assays
[2]
  Kd: 0.158 µM
[3]
  binding signal (fold higher affinity than wild type): 3
